Positions count from the first letter of the chain named.
How the values were obtained:
Experiment in all cases: cleavage_in_vitro
CasX variant 438 = target: T1, CasX variant 438 (synthetic construct)
T1 chain: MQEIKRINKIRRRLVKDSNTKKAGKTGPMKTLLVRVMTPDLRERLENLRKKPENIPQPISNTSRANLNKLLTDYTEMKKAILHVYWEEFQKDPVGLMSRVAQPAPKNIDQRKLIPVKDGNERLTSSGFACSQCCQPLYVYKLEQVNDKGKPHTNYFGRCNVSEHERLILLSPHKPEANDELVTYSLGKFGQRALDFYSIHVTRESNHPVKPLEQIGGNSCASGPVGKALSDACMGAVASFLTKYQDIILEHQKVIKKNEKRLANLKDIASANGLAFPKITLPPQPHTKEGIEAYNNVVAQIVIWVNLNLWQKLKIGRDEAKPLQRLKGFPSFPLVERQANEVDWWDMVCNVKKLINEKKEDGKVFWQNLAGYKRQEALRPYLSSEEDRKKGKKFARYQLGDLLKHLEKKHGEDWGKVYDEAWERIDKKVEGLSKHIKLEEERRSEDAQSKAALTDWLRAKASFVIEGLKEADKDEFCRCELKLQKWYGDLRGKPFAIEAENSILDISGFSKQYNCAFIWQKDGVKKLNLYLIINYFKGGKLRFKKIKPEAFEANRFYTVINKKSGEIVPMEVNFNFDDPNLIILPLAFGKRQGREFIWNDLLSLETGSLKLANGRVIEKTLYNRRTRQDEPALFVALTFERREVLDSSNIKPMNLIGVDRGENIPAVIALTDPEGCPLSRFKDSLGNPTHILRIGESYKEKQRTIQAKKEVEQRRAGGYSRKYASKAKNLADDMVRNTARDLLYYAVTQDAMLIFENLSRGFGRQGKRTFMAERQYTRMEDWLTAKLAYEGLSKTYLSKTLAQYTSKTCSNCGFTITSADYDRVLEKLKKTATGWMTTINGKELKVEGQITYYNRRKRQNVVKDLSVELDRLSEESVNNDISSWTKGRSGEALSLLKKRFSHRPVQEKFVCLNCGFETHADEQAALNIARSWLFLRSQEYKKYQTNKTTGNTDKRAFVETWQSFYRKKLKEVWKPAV

CasX variant 119 = target: T2, CasX variant 119 (synthetic construct)
T2 chain: T1 chain with L399F, K404L, V658I, R856Y

CasX 2 (reference CasX) = target: T3, CasX 2 (reference CasX) (Planctomycetes)
T3 chain: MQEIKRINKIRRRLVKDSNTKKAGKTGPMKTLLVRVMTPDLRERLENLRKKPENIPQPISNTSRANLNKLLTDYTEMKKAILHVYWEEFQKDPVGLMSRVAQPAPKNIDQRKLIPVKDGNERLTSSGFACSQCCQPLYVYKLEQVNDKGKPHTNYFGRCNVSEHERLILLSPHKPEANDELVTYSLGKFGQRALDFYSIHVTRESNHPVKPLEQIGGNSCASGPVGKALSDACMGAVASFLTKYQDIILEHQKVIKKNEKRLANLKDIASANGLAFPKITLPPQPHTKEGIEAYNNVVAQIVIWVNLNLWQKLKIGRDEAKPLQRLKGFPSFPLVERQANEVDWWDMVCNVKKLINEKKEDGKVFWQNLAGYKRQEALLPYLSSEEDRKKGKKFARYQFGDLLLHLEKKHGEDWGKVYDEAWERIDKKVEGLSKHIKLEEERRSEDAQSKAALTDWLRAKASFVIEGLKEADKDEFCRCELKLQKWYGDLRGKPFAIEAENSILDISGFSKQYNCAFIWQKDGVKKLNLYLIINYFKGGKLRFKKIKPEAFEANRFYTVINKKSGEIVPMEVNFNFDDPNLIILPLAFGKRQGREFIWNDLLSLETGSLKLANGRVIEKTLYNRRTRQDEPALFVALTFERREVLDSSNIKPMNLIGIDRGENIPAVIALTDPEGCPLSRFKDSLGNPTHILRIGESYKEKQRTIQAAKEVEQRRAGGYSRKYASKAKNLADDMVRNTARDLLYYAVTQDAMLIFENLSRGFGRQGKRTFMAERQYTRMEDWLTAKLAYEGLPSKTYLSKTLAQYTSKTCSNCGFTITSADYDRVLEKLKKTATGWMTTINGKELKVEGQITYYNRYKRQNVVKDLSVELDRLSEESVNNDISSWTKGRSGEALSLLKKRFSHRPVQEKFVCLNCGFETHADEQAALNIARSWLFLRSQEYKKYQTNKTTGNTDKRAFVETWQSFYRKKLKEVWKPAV

CasX variant 491 = target: T4, CasX variant 491 (synthetic construct)
T4 chain: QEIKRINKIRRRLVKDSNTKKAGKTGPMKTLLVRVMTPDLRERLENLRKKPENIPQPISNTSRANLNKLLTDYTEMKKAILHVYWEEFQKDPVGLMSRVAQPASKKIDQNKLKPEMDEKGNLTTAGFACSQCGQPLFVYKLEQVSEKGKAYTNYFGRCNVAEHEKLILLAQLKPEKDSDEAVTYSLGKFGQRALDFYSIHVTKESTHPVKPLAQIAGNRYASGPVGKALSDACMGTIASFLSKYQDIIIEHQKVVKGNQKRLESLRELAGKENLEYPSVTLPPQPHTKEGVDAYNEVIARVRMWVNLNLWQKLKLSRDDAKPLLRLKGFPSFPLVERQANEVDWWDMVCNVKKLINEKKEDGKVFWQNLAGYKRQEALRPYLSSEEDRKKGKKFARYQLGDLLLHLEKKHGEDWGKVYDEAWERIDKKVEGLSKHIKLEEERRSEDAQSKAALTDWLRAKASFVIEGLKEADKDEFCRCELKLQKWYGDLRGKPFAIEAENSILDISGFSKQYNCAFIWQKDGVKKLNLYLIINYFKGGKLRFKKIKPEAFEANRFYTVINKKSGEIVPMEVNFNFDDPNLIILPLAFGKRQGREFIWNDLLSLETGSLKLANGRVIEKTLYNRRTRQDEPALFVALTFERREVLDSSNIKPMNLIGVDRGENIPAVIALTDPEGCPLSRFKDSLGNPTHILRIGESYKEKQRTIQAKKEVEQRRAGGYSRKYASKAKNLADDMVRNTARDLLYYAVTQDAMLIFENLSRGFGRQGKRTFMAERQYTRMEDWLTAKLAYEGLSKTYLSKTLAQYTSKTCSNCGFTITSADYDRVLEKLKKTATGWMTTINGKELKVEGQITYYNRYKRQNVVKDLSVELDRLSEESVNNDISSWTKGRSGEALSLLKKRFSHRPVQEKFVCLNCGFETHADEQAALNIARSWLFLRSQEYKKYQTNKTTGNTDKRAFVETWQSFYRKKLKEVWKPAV

B1: gRNA scaffold 174 + spacer 7.37 ; 7.37 CTC PAM target (ssRNA ; dsDNA)
RNA: ACUGGCGCUUUUAUCUGAUUACUUUGAGAGCCAUCACCAGCGACUAUGUCGUAGUGGGUAAAGCUCCCUCUUCGGAGGGAGCAUCAAAGGGGCCGAGAUGUCUCGCUCC
DNA 1: TGAAGCTGACAGCACTCGGGCCGAGATGTCTCGCTCCGTGGCCTTAGCTGTGCTCGCGCT
DNA 2: AGCGCGAGCACAGCTAAGGCCACGGAGCGAGACATCTCGGCCCGAGTGCTGTCAGCTTCA
activity (CasX variant 438): 0.212 min⁻¹
activity (CasX variant 119): 0.303 min⁻¹
activity (CasX 2 (reference CasX)): 0.00929 min⁻¹

B2: gRNA scaffold 174 + spacer 7.37 ; 7.37 ATC PAM target (ssRNA ; dsDNA)
RNA: B1 RNA
DNA 1: B1 DNA 1 with C15A
DNA 2: B1 DNA 2 with G46T
activity (CasX variant 438): 0.408 min⁻¹
activity (CasX variant 119): 0.54 min⁻¹
activity (CasX 2 (reference CasX)): 0.0187 min⁻¹

B3: gRNA scaffold 174 + spacer 7.37 ; 7.37 GTC PAM target (ssRNA ; dsDNA)
RNA: B1 RNA
DNA 1: B1 DNA 1 with C15G
DNA 2: B1 DNA 2 with G46C
activity (CasX variant 119): 0.0864 min⁻¹
activity (CasX 2 (reference CasX)): 0.00375 min⁻¹

B4: gRNA scaffold 174 + spacer 7.37 ; 7.37 TTT PAM target (ssRNA ; dsDNA)
RNA: B1 RNA
DNA 1: B1 DNA 1 with C15T, C17T
DNA 2: B1 DNA 2 with G44A, G46A
activity (CasX variant 491): 1.33 min⁻¹

From patent US20240360474 (Scribe Therapeutics Inc., published 2024)
